Where no end group is shown, it is not given here.
Tests used:
[1] = target: T1, His-tagged human PCNA (human, UniProt P12004 1-261); assay: ITC; 25°C, PBS with 1 mM β-mercaptoethanol; 15 μM PCNA in the chamber, 215 μM ERCC6L2 aPIP peptide injected in 20 steps of 2 μL; single set of independent binding sites model; details: both partners purified
T1 construct: PCNA, human; cloned into the NdeI and XhoI sites of pET28a for the protein with N-terminal His-tag; The ITC methods say only 'PCNA'; the paragraph on purification of His-tagged PCNA describes the preparation for ITC; also called recombinant PCNA; source: E. coli Rosetta (pET28a), purified (Ni-NTA, Q-sepharose, Superdex S-200); not shown: His-tag, N-terminal, kept
T1 sequence (P12004 whole entry): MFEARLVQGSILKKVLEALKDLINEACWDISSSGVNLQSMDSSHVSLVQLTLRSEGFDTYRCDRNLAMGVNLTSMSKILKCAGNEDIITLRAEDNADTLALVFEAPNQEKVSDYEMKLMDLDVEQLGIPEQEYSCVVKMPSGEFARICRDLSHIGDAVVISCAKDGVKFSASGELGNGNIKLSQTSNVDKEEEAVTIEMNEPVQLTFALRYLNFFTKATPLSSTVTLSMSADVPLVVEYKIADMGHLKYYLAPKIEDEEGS

[2] = target: T1, His-tagged human PCNA; assay: pull-down; biotinylated peptides immobilised on magnetic streptavidin beads, incubated with purified His-tagged PCNA 1 h at 4°C in 50 mM Tris-HCl pH 8, 150 mM NaCl, 1 mM DTT, 0.2% Triton X-; anti-PCNA Western blot; details: both partners purified
[3] = target: T1, His-tagged human PCNA; assay: pull-down; GST-tagged ERCC6L2 753-819 immobilised on GST-beads, incubated with purified His-tagged PCNA 1 h at 4°C in 50 mM Tris-HCl pH 8, 150 mM NaCl, 1 mM DTT, 0.2% Triton X-; Western blot against PCNA; details: both partners purified
[4] = test system: endogenous PCNA; assay: Colocalization of YFP-ERCC6L2 constructs with endogenous PCNA; assay type: cell-based, human; details: YFP-tagged, U2OS cells
Source text: Figure 4 ERCC6L2 contains an atypical PCNA-binding motif (A) ERCC6L2 colocalizes with PCNA at CENP-C-negative foci. U2OS cells transfected with YFP-ERCC6L2 were stained for CENP-C and PCNA after pre-extraction of soluble proteins. ERCC6L2-and PCNA-positive, but CENP-C negative foci (red arrows) are marked in zoomed images. (B) ERCC6L2 colocalizes with RPA at CENP-C-negative foci. U2OS cells transfected with YFP-ERCC6L2 were stained for CENP-C and RPA. ERCC6L2- and RPA-positive, but CENP-C-negative foci (red arrows) are marked in zoomed images. (C) Colocalization of the C-terminal ERCC6L2^701−1561 fragment with endogenous PCNA. (D) PCNA pull-down with biotinylated peptides. Biotinylated PIP-box and APIM motif peptides were bound to streptavidin beads and incubated with recombinant PCNA. Interactions were assayed by western blotting with PCNA antibody. Wild-type ZRANB3 PIP-box peptide (ZRANB3 PIP) was used as a positive control. Mutant ZRANB3 PIP-box peptide (Q519A, F525A, and F526A, ZRANB3 PIP^∗) served as a negative control. […] Interactions were assessed by western blotting against PCNA (shown on the right). […]
U2OS cells (ATCC) were grown in 24 well plates. […] Samples were analyzed by confocal microscopy using Olympus FV1200 or Zeiss 880 Airyscan microscopes, or using EVOS M7000 Imaging System. […]

[5] = test system: CENP-A; assay: Colocalization of YFP-ERCC6L2 constructs with CENP-A; assay type: cell-based, human; details: U2OS cells; N(cells) > 1,400 for mutants
[6] = test system: U2OS cells; assay: Nuclear patterns resembling replication foci of YFP-ERCC6L2 truncations; assay type: cell-based, human; details: YFP-tagged fragments
Source text: Figure 4 ERCC6L2 contains an atypical PCNA-binding motif (A) ERCC6L2 colocalizes with PCNA at CENP-C-negative foci. U2OS cells transfected with YFP-ERCC6L2 were stained for CENP-C and PCNA after pre-extraction of soluble proteins. ERCC6L2-and PCNA-positive, but CENP-C negative foci (red arrows) are marked in zoomed images. (B) ERCC6L2 colocalizes with RPA at CENP-C-negative foci. U2OS cells transfected with YFP-ERCC6L2 were stained for CENP-C and RPA. ERCC6L2- and RPA-positive, but CENP-C-negative foci (red arrows) are marked in zoomed images. (C) Colocalization of the C-terminal ERCC6L2^701−1561 fragment with endogenous PCNA. (D) PCNA pull-down with biotinylated peptides. Biotinylated PIP-box and APIM motif peptides were bound to streptavidin beads and incubated with recombinant PCNA. Interactions were assayed by western blotting with PCNA antibody. Wild-type ZRANB3 PIP-box peptide (ZRANB3 PIP) was used as a positive control. Mutant ZRANB3 PIP-box peptide (Q519A, F525A, and F526A, ZRANB3 PIP^∗) served as a negative control. ERCC6L2 aPIP and ERCC6L2 aPIP^∗ denote atypical ERCC6L2 peptides (residues 790–811) containing the WT and the Q798A mutant sequences, respectively. (E) Expression patterns of the indicated C-terminal YFP-ERCC6L2 constructs. […] (F) PCNA pull-down with GST-tagged peptides. Wild-type and Q798A mutant versions of the GST-tagged ERCC6L2 fragments (residues 753–819) were immobilized on GST beads (shown on the left) and incubated with recombinant PCNA. Interactions were assessed by western blotting against PCNA (shown on the right). (G) Schematic representation of different ERCC6L2 fragments tested for formation of PCNA-like foci. A region at the N terminus of fragment 701–1,098 is zoomed below to show sequence alignment of different ERCC6L2 proteins. The conserved atypical PIP-box is marked in a green frame. Targeted mutation sites are indicated by red arrows. (H) Colocalization of YFP-ERCC6L2 wild type, ATPase dead K165 ERCC6L2, and aPIP^∗ mutant (Q798A, C804A, F806A) with CENP-A. N(cells) > 1,400. (I) Colocalization of YFP-ERCC6L2 wild type, ATPase dead K165 ERCC6L2, and aPIP^∗ mutant (Q798A, C804A, F806A) with CENP-B. N(cells) > 1,000. (J) Front and side views of the PCNA ring (white surface and ribbons) with the ERCC6L2 aPIP-box peptide (green sticks). (K) Overview of the hydrogen-bond interaction network between the ERCC6L2 aPIP-box peptide (green) and PCNA (white). Hydrogen bonds are shown as yellow dotted lines. (L) Hydrophobic pocket on PCNA surface (white) with conserved residues that form “hydrophobic plug” (Leu801, Cys804, and Phe806; shown as green sticks) in the ERCC6L2 aPIP-box peptide. (M) Magnified view of the boxed region in (I). (N) Magnified view of the hydrogen-bond interaction network between the ERCC6L2 aPIP-box peptide (green) and PCNA (white, labels in italics). Hydrogen bonds are shown as yellow dotted lines. Intramolecular hydrogen bonds between ERCC6L2 aPIP-box residues are also shown. (H) and (I) Box and whisker plots. […] (A), (B), (C), (E) Scale bar, 5 μm.
U2OS cells (ATCC) were grown in 24 well plates. Where indicated, cells were transfected with the YFP constructs […] with siRNAs. […] Samples were analyzed by confocal microscopy using Olympus FV1200 or Zeiss 880 Airyscan microscopes, or using EVOS M7000 Imaging System.

Molecule	nuclear pattern resembling replication foci [6]	further results
SPGQLTLLQCGFSKLLETKCKA (peptide, UniProt Q5T890 795-816, looked up, ERCC6L2, human, residues 795-816, atypical PIP-box; Used for ITC and for co-crystallisation with PCNA; also called ERCC6L2 aPIP peptide; aPIP(ERCC6L2); source: synthetic peptide (Genscript)) [ERCC6L2^795−816 aPIP peptide]		Kd [1]: ~6 µM
SKASSSPGQLTLLQCGFSKLLE (peptide, UniProt Q5T890 790-811, looked up, also: biotin, position not given here, ERCC6L2, human, residues 790-811, wild-type atypical PIP-box (consensus Q-[FL]-x-L-x-Q-C-G-[FL]); also called ERCC6L2 aPIP; biotinylated ERCC6L2^790−811 peptide; source: synthetic peptide (Genscript)) [Biotinylated aPIP ERCC6L2 peptide (residues 790–811)]		binding result [2]: binds
GST-tagged ERCC6L2^753−819 fragment (domain or fragment, human, UniProt Q5T890 753-819, looked up) AAEPLAKEACDLCSDFSDEEPVGATGIKTAKNKAPDSSKASSSPGQLTLLQCGFSKLLETKCKAVED		binding result [3]: binds
ERCC6L2^701−1247: C-terminal ERCC6L2 fragment (protein, UniProt Q5T890 701-1247, looked up, fragment, YFP tag, C-terminal ERCC6L2 fragment) REGQVEAGIMTATTWLKEGPPAHKLEMPRQPDCQECRGTEQAAEPLAKEACDLCSDFSDEEPVGATGIKTAKNKAPDSSKASSSPGQLTLLQCGFSKLLETKCKAVEDSDGNTASDDESSDEQPTCLSTEAKDAGCEKNQDSLGTSKHQKLDNILNPKEKHIFYKSEKILEQNISSKSDEKKIKNTDKHCILQNVTESEDSDVICPTQYTTERFPDNSIRFKPPLEGSEDSETEHTVKTRNNDNSRNTDDKRNGIISKKLSPENTTLKSILKRKGTSDISDESDDIEISSKSRVRKRASSLRFKRIKETKKELHNSPKTMNKTNQVYAANEDHNSQFIDDYSSSDESLSVSHFSFSKQSHRPRTIRDRTSFSSKLPSHNKKNSTFIPRKPMKCSNEKVVNQEQSYESMDKFLDGVQEVAYIHSNQNVIGSSKAENHMSRWAAHDVFELKQFSQLPANIAVCSSKTYKEKVDADTLPHTKKGQQPSEGSISLPLYISNPVNQKKKKVYHTNQTTFIIGETPKGIRRKQFEEMASYFNSSSVNEFAKHI		colocalization with endogenous PCNA [4]: efficiently colocalized with endogenous PCNA
YFP-ERCC6L2^1053−1247: YFP-tagged C-terminal ERCC6L2 fragment (protein, UniProt Q5T890 1053-1247, looked up, fragment, YFP tag, YFP-tagged C-terminal ERCC6L2 fragment) FSFSKQSHRPRTIRDRTSFSSKLPSHNKKNSTFIPRKPMKCSNEKVVNQEQSYESMDKFLDGVQEVAYIHSNQNVIGSSKAENHMSRWAAHDVFELKQFSQLPANIAVCSSKTYKEKVDADTLPHTKKGQQPSEGSISLPLYISNPVNQKKKKVYHTNQTTFIIGETPKGIRRKQFEEMASYFNSSSVNEFAKHI		colocalization with CENP-A [5]: formed foci marked by the CENP-A protein
797–1,098: C-terminal YFP-ERCC6L2 fragment (protein, UniProt Q5T890 797-1098, looked up, fragment, YFP tag, C-terminal YFP-ERCC6L2 fragment) KLLETKCKAVEDSDGNTASDDESSDEQPTCLSTEAKDAGCEKNQDSLGTSKHQKLDNILNPKEKHIFYKSEKILEQNISSKSDEKKIKNTDKHCILQNVTESEDSDVICPTQYTTERFPDNSIRFKPPLEGSEDSETEHTVKTRNNDNSRNTDDKRNGIISKKLSPENTTLKSILKRKGTSDISDESDDIEISSKSRVRKRASSLRFKRIKETKKELHNSPKTMNKTNQVYAANEDHNSQFIDDYSSSDESLSVSHFSFSKQSHRPRTIRDRTSFSSKLPSHNKKNSTFIPRKPMKCSNEKV	show patterns reminiscent of replication foci	
728–1,098: C-terminal YFP-ERCC6L2 fragment (protein, UniProt Q5T890 728-1098, looked up, fragment, YFP tag, C-terminal YFP-ERCC6L2 fragment) PRQPDCQECRGTEQAAEPLAKEACDLCSDFSDEEPVGATGIKTAKNKAPDSSKASSSPGQLTLLQCGFSKLLETKCKAVEDSDGNTASDDESSDEQPTCLSTEAKDAGCEKNQDSLGTSKHQKLDNILNPKEKHIFYKSEKILEQNISSKSDEKKIKNTDKHCILQNVTESEDSDVICPTQYTTERFPDNSIRFKPPLEGSEDSETEHTVKTRNNDNSRNTDDKRNGIISKKLSPENTTLKSILKRKGTSDISDESDDIEISSKSRVRKRASSLRFKRIKETKKELHNSPKTMNKTNQVYAANEDHNSQFIDDYSSSDESLSVSHFSFSKQSHRPRTIRDRTSFSSKLPSHNKKNSTFIPRKPMKCSNEKV	show patterns reminiscent of replication foci	
701–1,098: C-terminal YFP-ERCC6L2 fragment (protein, UniProt Q5T890 701-1098, looked up, fragment, YFP tag, C-terminal YFP-ERCC6L2 fragment) REGQVEAGIMTATTWLKEGPPAHKLEMPRQPDCQECRGTEQAAEPLAKEACDLCSDFSDEEPVGATGIKTAKNKAPDSSKASSSPGQLTLLQCGFSKLLETKCKAVEDSDGNTASDDESSDEQPTCLSTEAKDAGCEKNQDSLGTSKHQKLDNILNPKEKHIFYKSEKILEQNISSKSDEKKIKNTDKHCILQNVTESEDSDVICPTQYTTERFPDNSIRFKPPLEGSEDSETEHTVKTRNNDNSRNTDDKRNGIISKKLSPENTTLKSILKRKGTSDISDESDDIEISSKSRVRKRASSLRFKRIKETKKELHNSPKTMNKTNQVYAANEDHNSQFIDDYSSSDESLSVSHFSFSKQSHRPRTIRDRTSFSSKLPSHNKKNSTFIPRKPMKCSNEKV	show patterns reminiscent of replication foci	
880–1,098: C-terminal YFP-ERCC6L2 fragment (protein, UniProt Q5T890 880-1098, looked up, fragment, YFP tag, C-terminal YFP-ERCC6L2 fragment) EKKIKNTDKHCILQNVTESEDSDVICPTQYTTERFPDNSIRFKPPLEGSEDSETEHTVKTRNNDNSRNTDDKRNGIISKKLSPENTTLKSILKRKGTSDISDESDDIEISSKSRVRKRASSLRFKRIKETKKELHNSPKTMNKTNQVYAANEDHNSQFIDDYSSSDESLSVSHFSFSKQSHRPRTIRDRTSFSSKLPSHNKKNSTFIPRKPMKCSNEKV	do not	
820–1,098: C-terminal YFP-ERCC6L2 fragment (protein, UniProt Q5T890 820-1098, looked up, fragment, YFP tag, C-terminal YFP-ERCC6L2 fragment) SDEQPTCLSTEAKDAGCEKNQDSLGTSKHQKLDNILNPKEKHIFYKSEKILEQNISSKSDEKKIKNTDKHCILQNVTESEDSDVICPTQYTTERFPDNSIRFKPPLEGSEDSETEHTVKTRNNDNSRNTDDKRNGIISKKLSPENTTLKSILKRKGTSDISDESDDIEISSKSRVRKRASSLRFKRIKETKKELHNSPKTMNKTNQVYAANEDHNSQFIDDYSSSDESLSVSHFSFSKQSHRPRTIRDRTSFSSKLPSHNKKNSTFIPRKPMKCSNEKV	do not	
